Data reported in patent EP1019524B1.

Biological target: HeLa cell PP1α (cellular PP1α in S10 fractions of HeLa cells) (human) (UniProt P62136)
Assay: cell-based or functional assay

Chain of HeLa cell PP1α (cellular PP1α in S10 fractions of HeLa cells) (human) (P62136 2-330): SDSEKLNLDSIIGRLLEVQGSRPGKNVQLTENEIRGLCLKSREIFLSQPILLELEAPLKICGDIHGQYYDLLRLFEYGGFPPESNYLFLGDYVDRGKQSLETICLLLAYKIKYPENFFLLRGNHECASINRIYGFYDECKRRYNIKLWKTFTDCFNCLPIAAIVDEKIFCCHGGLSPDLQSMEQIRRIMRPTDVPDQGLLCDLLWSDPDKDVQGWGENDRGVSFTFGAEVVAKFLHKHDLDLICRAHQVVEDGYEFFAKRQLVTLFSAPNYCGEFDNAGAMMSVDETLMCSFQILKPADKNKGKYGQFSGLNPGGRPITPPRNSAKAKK

For “γ134.5-MyD116 chimeric protein expressed by recombinant virus R8300 (from UniProt P36313 1-175; P17564 540-657)”, the eIF-2(α32P) phosphatase activity of S10 fractions of R8300 infected HeLa cells against mock-infected cells was 50 fold.
For protein phosphatase Inhibitor 2, the 50% reduction in the rate of dephosphorylation of eIF-2(α32P) by the S10 fraction from R8300 virus-infected cells was 120 µg/mL and the 50% reduction in the rate of dephosphorylation of eIF-2(α32P) by the S10 fraction from wild-type virus-infected cells was 90 µg/mL.
“γ134.5 protein of HSV-1(F), from lysates of HSV-1(F) infected cells (from UniProt P36313 1-248)” gave a 32P-phosphorylase phosphatase activity of HSV-1(F)-infected cells against mock-infected cells (fold of mock-infected cells) of 0.5 and an eIF-2(α32P) phosphatase activity of S10 fractions of wild type infected HeLa cells against mock-infected cells of 3000 fold.
